Assay results: paper PMC13108567, “Targeting PD-1^+ T cells with chimeric antigen receptors to reduce the HIV reservoir” (Science Advances, 2026)

Molecular target: T1, PD-1 biotinylated dimer (Homo sapiens, UniProt Q15116)
T1 construct: also called PD-1 dimer protein
Assay: BLI
Settings: both partners purified

T1 sequence (Q15116 25-288): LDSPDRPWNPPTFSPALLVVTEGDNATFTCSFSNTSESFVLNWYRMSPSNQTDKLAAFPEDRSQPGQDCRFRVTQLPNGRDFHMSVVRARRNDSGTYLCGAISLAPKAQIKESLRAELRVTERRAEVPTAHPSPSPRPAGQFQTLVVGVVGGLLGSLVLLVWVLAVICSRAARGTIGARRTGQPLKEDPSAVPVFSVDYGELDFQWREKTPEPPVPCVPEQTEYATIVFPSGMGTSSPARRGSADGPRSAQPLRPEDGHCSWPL

B1: scFv-His of anti-PD-1 clone 135c139d6 (scFv, V domains shown)
VH: EVQLVQSGAEVKKPGESLKISCKGSGYSFTNFYIHWVRQAPGQRLEWMGSIYPNYGDTAYNQKFKDRFVFSLDTSVSTAYLQISSLKAEDTAVYYCARGYSYAMDYWGQGTTVTVSS
VL: DIQMTQSPSSVSASVGDRVTITCSASQGISGDLNWYQQKPGKAPKLLIYHTSSLHSGVPSRFSGSGSGTDFTLTISSLQPEDFATYYCQYYSKDLLTFGGGTKLEIK
notes: source: purified
With B1 the “KD, fold lower than that of the scFv of clone A35” value was 4 times.
